From patent US10597674B2, “HPPD variants and methods of use” (BASF Agricultural Solutions Seed, US LLC, priority 2015, dated 2020)

B1: SEQ ID NO: 105: mutant HPPD polypeptide: R213K M264L P268G T270E E335P G336H N337S A340R S344Q I345M (protein)
chain: MADLYENPMGLMGFEFIEFASPTPGTLEPIFEIMGFTKVATHRSKNVHLYRQGEINLILNNEPNSIASYFAAEHGPSVCGMAFRVKDSQKAYNRALELGAQPIHIDTGPMELNLPAIKGIGGAPLYLIDRFGEGSSIYDIDFVYLEGVERNPVGAGLKVIDHLTHNVYRGRMVYWANFYEKLFNFREARYFDIKGEYTGLTSKAMSAPDGMIKIPLNEESSKGAGQIEEFLMQFNGEGIQHVAFLTDDLVKTWDALKKIGMRFLTAPGDEYYEMLEGRLPDHGEPVDQLQARGILLDGSSVEGDKRLLLQIFSETLMGPVFFEFIQRKGDDGFGPHSFKRLFEQMERDQVRRGVLTAD
modifications: mutant HPPD polypeptide
notes: mutant HPPD polypeptide: R213K M264L P268G T270E E335P G336H N337S A340R S344Q I345M
B2: SEQ ID NO: 43: mutant HPPD polypeptide: R213K P268G T270E E335P G336D N337S A340V I345V (protein)
chain: MADLYENPMGLMGFEFIEFASPTPGTLEPIFEIMGFTKVATHRSKNVHLYRQGEINLILNNEPNSIASYFAAEHGPSVCGMAFRVKDSQKAYNRALELGAQPIHIDTGPMELNLPAIKGIGGAPLYLIDRFGEGSSIYDIDFVYLEGVERNPVGAGLKVIDHLTHNVYRGRMVYWANFYEKLFNFREARYFDIKGEYTGLTSKAMSAPDGMIKIPLNEESSKGAGQIEEFLMQFNGEGIQHVAFLTDDLVKTWDALKKIGMRFMTAPGDEYYEMLEGRLPDHGEPVDQLQARGILLDGSSVEGDKRLLLQIFSETLMGPVFFEFIQRKGDDGFGPDSFKVLFESVERDQVRRGVLTAD
modifications: mutant HPPD polypeptide
notes: mutant HPPD polypeptide: R213K P268G T270E E335P G336D N337S A340V I345V
B3: SEQ ID NO: 24: mutant HPPD polypeptide: E335P G336H N337S A340V I345V (protein)
chain: MADLYENPMGLMGFEFIEFASPTPGTLEPIFEIMGFTKVATHRSKNVHLYRQGEINLILNNEPNSIASYFAAEHGPSVCGMAFRVKDSQKAYNRALELGAQPIHIDTGPMELNLPAIKGIGGAPLYLIDRFGEGSSIYDIDFVYLEGVERNPVGAGLKVIDHLTHNVYRGRMVYWANFYEKLFNFREARYFDIKGEYTGLTSKAMSAPDGMIRIPLNEESSKGAGQIEEFLMQFNGEGIQHVAFLTDDLVKTWDALKKIGMRFMTAPPDTYYEMLEGRLPDHGEPVDQLQARGILLDGSSVEGDKRLLLQIFSETLMGPVFFEFIQRKGDDGFGPHSFKVLFESVERDQVRRGVLTAD
modifications: mutant HPPD polypeptide
notes: mutant HPPD polypeptide: E335P G336H N337S A340V I345V
B4: SEQ ID NO: 54: mutant HPPD polypeptide: P268G T270E E335P G336D N337S K339A A340V I345V (protein)
chain: MADLYENPMGLMGFEFIEFASPTPGTLEPIFEIMGFTKVATHRSKNVHLYRQGEINLILNNEPNSIASYFAAEHGPSVCGMAFRVKDSQKAYNRALELGAQPIHIDTGPMELNLPAIKGIGGAPLYLIDRFGEGSSIYDIDFVYLEGVERNPVGAGLKVIDHLTHNVYRGRMVYWANFYEKLFNFREARYFDIKGEYTGLTSKAMSAPDGMIRIPLNEESSKGAGQIEEFLMQFNGEGIQHVAFLTDDLVKTWDALKKIGMRFMTAPGDEYYEMLEGRLPDHGEPVDQLQARGILLDGSSVEGDKRLLLQIFSETLMGPVFFEFIQRKGDDGFGPDSFAVLFESVERDQVRRGVLTAD
modifications: mutant HPPD polypeptide
notes: mutant HPPD polypeptide: P268G T270E E335P G336D N337S K339A A340V I345V
B5: SEQ ID NO: 102: mutant HPPD polypeptide: M264L P268G (Table 2: R) T270E T315R E335P G336H N337S A340V S344Q I345M (protein)
chain: MADLYENPMGLMGFEFIEFASPTPGTLEPIFEIMGFTKVATHRSKNVHLYRQGEINLILNNEPNSIASYFAAEHGPSVCGMAFRVKDSQKAYNRALELGAQPIHIDTGPMELNLPAIKGIGGAPLYLIDRFGEGSSIYDIDFVYLEGVERNPVGAGLKVIDHLTHNVYRGRMVYWANFYEKLFNFREARYFDIKGEYTGLTSKAMSAPDGMIRIPLNEESSKGAGQIEEFLMQFNGEGIQHVAFLTDDLVKTWDALKKIGMRFLTAPRDEYYEMLEGRLPDHGEPVDQLQARGILLDGSSVEGDKRLLLQIFSERLMGPVFFEFIQRKGDDGFGPHSFKVLFEQMERDQVRRGVLTAD
modifications: mutant HPPD polypeptide
B6: SEQ ID NO: 8: mutant HPPD polypeptide: E335P G336D N337S A340V (protein)
chain: MADLYENPMGLMGFEFIEFASPTPGTLEPIFEIMGFTKVATHRSKNVHLYRQGEINLILNNEPNSIASYFAAEHGPSVCGMAFRVKDSQKAYNRALELGAQPIHIDTGPMELNLPAIKGIGGAPLYLIDRFGEGSSIYDIDFVYLEGVERNPVGAGLKVIDHLTHNVYRGRMVYWANFYEKLFNFREARYFDIKGEYTGLTSKAMSAPDGMIRIPLNEESSKGAGQIEEFLMQFNGEGIQHVAFLTDDLVKTWDALKKIGMRFMTAPPDTYYEMLEGRLPDHGEPVDQLQARGILLDGSSVEGDKRLLLQIFSETLMGPVFFEFIQRKGDDGFGPDSFKVLFESIERDQVRRGVLTAD
modifications: mutant HPPD polypeptide
notes: mutant HPPD polypeptide: E335P G336D N337S A340V
B7: SEQ ID NO: 56: mutant HPPD polypeptide: P268G T270E E335P G336D N337S K339R A340V I345V (protein)
chain: MADLYENPMGLMGFEFIEFASPTPGTLEPIFEIMGFTKVATHRSKNVHLYRQGEINLILNNEPNSIASYFAAEHGPSVCGMAFRVKDSQKAYNRALELGAQPIHIDTGPMELNLPAIKGIGGAPLYLIDRFGEGSSIYDIDFVYLEGVERNPVGAGLKVIDHLTHNVYRGRMVYWANFYEKLFNFREARYFDIKGEYTGLTSKAMSAPDGMIRIPLNEESSKGAGQIEEFLMQFNGEGIQHVAFLTDDLVKTWDALKKIGMRFMTAPGDEYYEMLEGRLPDHGEPVDQLQARGILLDGSSVEGDKRLLLQIFSETLMGPVFFEFIQRKGDDGFGPDSFRVLFESVERDQVRRGVLTAD
modifications: mutant HPPD polypeptide
notes: mutant HPPD polypeptide: P268G T270E E335P G336D N337S K339R A340V I345V

Test system: transgenic soybean T0 events
Assay: Additional greenhouse trials of T0 soybean events, leaf damage score 0-100 as percentiles
Format: in vivo
Details: Cmpd. 1 300 g AI/ha, five days; for leaf damage score, Interquartile range: 75th minus 25th percentile; for leaf damage score, 25th percentile: scale 0 (no damage) to 100 (complete bleaching); for leaf damage score, 75th percentile / leaf damage score, 90th percentile / leaf damage score, Median: scale 0-100
From the text: In additional greenhouse trials, 21 to 94 independent T0 soybean events per construct containing an exemplary mutant HPPD polypeptide were sprayed with the HPPD inhibitor herbicide Cmpd. […] Five days after the application, the leaf damaged area due to the HPPD inhibitor herbicide is scored in a scale from 0 (no damage) to 100 (complete bleaching). Under those conditions, the wild-type plants were completely bleached and their damage scores were in the 95-100 range.
Table 9 presents the distribution of the HPPD inhibitor herbicide damage score data as percentile for exemplary mutant HPPD inhibitor herbicide tolerant polypeptides (SEQ ID NOs). The percentiles normalize ranks of the damage score from an individual plant in a population. […] The median is the 50th percentile. Half the values had higher damage scores; half had lower damage scores. […] The difference between the 75th and 25th percentile is called the interquartile range and a marker to quantify scattering in the population. All constructs had only one single cassette insertion in the soybean genome.
In Table 9, the constructs were ranked based on injury scores according to the 75th percentile, from smallest to highest score. All exemplary HPPD polypeptide variants are better in all percentile analyses than the prior art mutant HPPD polypeptide (WO2014/043435) corresponding to SEQ ID NO:2 in this invention. The scoring of the prior art mutant HPPD polypeptide (WO2014/043435) corresponding to SEQ ID NO:2 in this invention is listed in the bottom row of Table 9.

| Molecule | leaf damage score, Interquartile range | leaf damage score, 25th percentile | leaf damage score, 75th percentile | leaf damage score, 90th percentile | leaf damage score, Median |
| --- | --- | --- | --- | --- | --- |
| B1 | 10.0 | 5.0 | 15.0 | 70.0 | 10.0 |
| B2 | 10.0 | 10.0 | 20.0 | 67.0 | 15.0 |
| B3 | 10.0 | 10.0 | 20.0 | 35.0 | 10.0 |
| B4 | 10.0 | 10.0 | 20.0 | 62.5 | 10.0 |
| B5 | 12.0 | 8.0 | 20.0 | 45.0 | 10.0 |
| B6 | 6.3 | 10.0 | 16.3 | 38.5 | 10.0 |
| B7 | 10.0 | 10.0 | 20.0 | 65.0 | 15.0 |
